Assay results from doi:10.1101/2021.08.02.454712.

Target: recombinant Heme Detoxification Protein (PfHDP) (Plasmodium falciparum) (UniProt Q8IL04)
Experiment: SPR

Substance: recombinant C-terminal Plasmodium falciparum exportin 2 (Pfexp-2), amino acids 139-285 (domain or fragment)
- Kd: 1100 nM
